Data published in patent US20120316071A1 (published 2012).
Where a chain is given by its changes, count along the chain named. Numbers in names are those of the source.

Tests used:
[1] = biological target: T1, rHuman ErbB2/Fc Chimera, CF (R&D Systems Cat#1129-ER) (human, UniProt P04626 23-652); experiment: ECL multispot (MSD) binding assay, antigens spotted on plate, 20 nM Fab;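 also: fab incubated 1 h at 20 °C on antigen-spotted wells, bound Fab detected by TAG-labelled antibody, ratio of 4 or more over blank counted as a hit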
T1 construct: Bought recombinant protein; also called human epidermal growth factor 2 receptor; Fc part of the bought chimera not given

[2] = biological target: T2, rHuman EGF R/Fc Chimera, CF (R&D Systems Cat#344-ER) (human, UniProt P00533 25-645); experiment: as above
T2 construct: Bought recombinant protein; also called epidermal growth factor receptor; Fc part of the bought chimera not given

[3] = biological target: T3, rHuman CD44/Fc Chimera, CF (R&D Systems Cat#3660-CD) (human, UniProt P16070 21-220); experiment: as above
T3 construct: Bought recombinant protein; Fc part of the bought chimera not given

[4] = biological target: T4, rHuman IGF-1 sR, (IGF-1 sR), CF (R&D Systems Cat#391-GR) (human, UniProt P08069 31-932); experiment: as above
T4 construct: Bought recombinant soluble receptor; The column head prints only 'IGF-1'; also called insulin-like growth factor-1 soluble receptor

[5] = biological target: T5, rHuman P-Cadherin/Fc Chimera, CF (R&D Systems Cat#861-PC) (human, UniProt P22223 108-654); experiment: as above
T5 construct: Bought recombinant protein; Fc part of the bought chimera not given

[6] = biological target: T6, Recombinant Human DLL4 (R&D Systems Cat#1506-D4/CF) (human, UniProt Q9NR61 27-524); experiment: as above
T6 construct: Bought recombinant protein; also called delta-like protein 4; rHuman DLL4

[7] = biological target: T7, rHuman ErbB2/Fc Chimera, CF (R&D Systems Cat#1129-ER) (human, UniProt P04626 23-652); experiment: ECL (MSD) multispot binding assay, antigen spotted on plate, 20 nM Fab;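 also: purified Fab incubated 1 h at 20 °C on antigen-spotted plate, bound Fab revealed with TAG detection antibody, ECL read, antigen signal divided by same-well blank, ratio ≥4 counted as hit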
T7 construct: Bought reagent; also called human epidermal growth factor 2 receptor; Fc part of the bought chimera not given

[8] = biological target: T8, rHuman EGF R/Fc Chimera, CF (R&D Systems Cat#344-ER) (human, UniProt P00533 25-645); experiment: as above
T8 construct: Bought reagent; also called epidermal growth factor receptor; Fc part of the bought chimera not given

[9] = biological target: T9, rHuman CD44/Fc Chimera, CF (R&D Systems Cat#3660-CD) (human, UniProt P16070 21-220); experiment: as above
T9 construct: Bought reagent; Fc part of the bought chimera not given

[10] = biological target: T10, rHuman IGF-1 sR, CF (R&D Systems Cat#391-GR) (human, UniProt P08069 31-932); experiment: as above
T10 construct: Bought soluble receptor; also called insulin-like growth factor-1 soluble receptor

[11] = biological target: T11, rHuman P-Cadherin/Fc Chimera, CF (R&D Systems Cat#861-PC) (human, UniProt P22223 108-654); experiment: as above
T11 construct: Bought reagent; Fc part of the bought chimera not given

[12] = biological target: T12, rHuman Erythropoietin R/Fc Chimera, CF (R&D Systems Cat#963-ER) (human, UniProt P19235 25-250); experiment: as above
T12 construct: Bought reagent; also called EPO R; EPO R/Fc; Fc part of the bought chimera not given
T12 sequence (looked up): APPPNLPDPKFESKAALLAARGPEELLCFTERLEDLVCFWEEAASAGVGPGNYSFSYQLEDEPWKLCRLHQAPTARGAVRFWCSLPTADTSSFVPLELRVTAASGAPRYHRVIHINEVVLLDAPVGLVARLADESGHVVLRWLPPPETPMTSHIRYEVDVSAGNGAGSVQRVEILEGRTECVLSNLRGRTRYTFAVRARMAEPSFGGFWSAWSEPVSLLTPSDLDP

[13] = biological target: T13, Recombinant Human DLL4 (R&D Systems Cat#1506-D4/CF) (human, UniProt Q9NR61 27-524); experiment: as above
T13 construct: Bought recombinant protein; also called delta-like protein 4; rHuman DLL4

[14] = biological target: T14, Recombinant Human DLL4 (delta-like protein 4) (human, UniProt Q9NR61 27-524); experiment: ECL (Meso Scale Discovery) binding assay on immobilised recombinant human DLL4; Fab concentration not given
T14 construct: Bought recombinant protein (R&D Systems Cat#1506-D4/CF); also called rHuman DLL4; Delta-like 4

[15] = biological target: T15, Recombinant Human DLL4 (R&D Systems Cat#1506-D4/CF) (human, UniProt Q9NR61 27-529); experiment: 96-well plate ECL (MSD) assay, DLL4 coated on plate, Fab at 0.04 µM; ECL signal on DLL4 over signal on blank well
T15 construct: Bought recombinant protein; also called rHuman DLL4; delta-like protein 4

B1: Fab VH3-23_IGHD2-21*01>3_IGHJ6*01 H100E/S108P/Y113G Y110T & V2-13_IGLJ2*01 (Fab, V domains shown)
VH: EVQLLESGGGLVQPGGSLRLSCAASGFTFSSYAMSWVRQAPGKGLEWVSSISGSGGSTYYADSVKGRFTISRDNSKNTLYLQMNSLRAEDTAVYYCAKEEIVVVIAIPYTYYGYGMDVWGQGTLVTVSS
VL: SSELTQDPAVSVALGQTVRITCQGDSLRSYYASWYQQKPGQAPVLVIYGKNNRPSGIPDRFSGSSSGNTASLTITGAQAEDEADYYCNSRDSSGNHLVVFGGGTKLTVL
notes: Tested as Fab made in E. coli: VH joined to CH1 (His and Flag tags), VL joined to lambda CL; also called EPG Y110T
- ECL multispot signal (ratio to blank; column not labelled) [1]: 0.8
- ECL multispot signal (ratio to blank; column not labelled) [2]: 1.8
- ECL multispot signal (ratio to blank; column not labelled) [3]: 1.6
- ECL multispot signal (ratio to blank; column not labelled) [4]: 1.8
- ECL multispot signal (ratio to blank; column not labelled) [5]: 1
- ECL multispot signal (ratio to blank; column not labelled) [6]: 1.8

B2: Fab VH3-23_IGHD2-21*01>3_IGHJ6*01 H100E/S108P/Y113G Y114E & V2-13_IGLJ2*01 (Fab, V domains shown)
VH: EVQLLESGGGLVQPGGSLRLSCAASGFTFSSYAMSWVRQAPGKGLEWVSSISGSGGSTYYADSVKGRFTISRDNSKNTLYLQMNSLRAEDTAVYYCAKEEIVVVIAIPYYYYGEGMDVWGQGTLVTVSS
VL: B1 VL
notes: Tested as Fab made in E. coli (VH-CH1 with His and Flag tags; lambda CL); also called EPG Y114E
- ECL multispot value [7]: 7.4
- ECL multispot value [8]: 6.8
- ECL multispot value [9]: 1.5
- ECL multispot value [10]: 1.5
- ECL multispot value [11]: 13.9
- ECL multispot value [12]: 69.2
- ECL multispot value [13]: 2.2

B3: Fab VH5-51_IGHD5-18*01>3_IGHJ4*01 G100K/G104T (H:KT) & V3-4_IGLJ1*01 G23A, N175K (Fab, V domains shown)
VH: EVQLVQSGAEVKKPGESLKISCKGSGYSFTSYWIGWVRQMPGKGLEWMGIIYPGDSDTRYSPSFQGQVTISADKSISTAYLQWSSLKASDTAMYYCARRKYSYTYDYFDYWGQGTLVTVSS
VL: QTVVTQEPSFSVSPGGTVTLTCALSSGSVSTSYYPSWYQQTPGQAPRTLIYSTNTRSSGVPDRFSGSILGNKAALTITGAQADDESDYYCVLYMGSGISYVFGTGTKVTVLG
notes: also called G100K/G104T & G23A/N175K
- ECL signal [14]: 17800

B4: Fab VH5-51_IGHD5-18*01>3_IGHJ4*01 G100K/G104T (H:KT) & V3-4_IGLJ1*01 S25A, A116T (Fab, V domains shown)
VH: B3 VH
VL: B3 VL with A23G, S25A
notes: also called G100K/G104T & S25A/A116T; named S52A/A116T in the running text
- ECL signal [14]: 12200

B5: Fab VH1-46_IGHD6-6*01_IGHJ1*01 E100A & L6_IGKJ1*01 (Fab, V domains shown)
VH: QVQLVQSGAEVKKPGASVKVSCKASGYTFTSYYMHWVRQAPGQGLEWMGIINPSGGSTSYAQKFQGRVTMTRDTSTSTVYMELSSLRSEDTAVYYCAREAYSSSSAEYFQHWGQGTLVTVSS
VL: not shown
notes: Heavy chain CDR3 alanine mutant of the parental Fab; Fab format as the parent (CH1 with His6/Flag tags, kappa CL)
- Signal/Noise [15]: 0.9

B6: Fab VH1-46_IGHD6-6*01_IGHJ1*01 S104A & L6_IGKJ1*01 (Fab, V domains shown)
VH: B5 VH with A100E, S104A
VL: not shown
notes: as for B5
- Signal/Noise [15]: 1.3

B7: Fab VH1-46_IGHD6-6*01_IGHJ1*01 S103A & L6_IGKJ1*01 (Fab, V domains shown)
VH: B5 VH with A100E, S103A
VL: not shown
notes: as for B5
- Signal/Noise [15]: 3.5

B8: Fab VH1-46_IGHD6-6*01_IGHJ1*01 H111A & L6_IGKJ1*01 (Fab, V domains shown)
VH: B5 VH with A100E, H111A
VL: not shown
notes: as for B5
- Signal/Noise [15]: 2.4

B9: Fab VH1-46_IGHD6-6*01_IGHJ1*01 S105A & L6_IGKJ1*01 (Fab, V domains shown)
VH: B5 VH with A100E, S105A
VL: not shown
notes: as for B5
- Signal/Noise [15]: 0.8

B10: Fab VH1-46_IGHD6-6*01_IGHJ1*01 S102A & L6_IGKJ1*01 (Fab, V domains shown)
VH: B5 VH with A100E, S102A
VL: not shown
notes: as for B5
- Signal/Noise [15]: 5.6
